Experiment: yeast display, Sf9 membrane polyspecificity reagent, FACS + sequencing; frameworks hold sequencing errors
Outline: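 Using colony PCR, genes from sorted yeast display clones were amplified, then sequenced on MiSeq at 2 × 250 and filtered by CDR length. The clones had been stained with 10% biotinylated, detergent-solubilized Sf9 membrane reagent for 1 hour at 4 °C and sorted by FACS into low and high (top ~1%) gates on anti-HA and streptavidin fluorescence. Polyreactivity labels come from the gate of origin.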

| Sequence | polyreactivity (PSR sort gate) |
| --- | --- |
| QVQLVESGGGLVQAGGSLRLSCAASGRTFFPYPRGCYRQAPGTDREFFAAITWSGGSTTYADSVKGRFTISRDNAKNTVYLQMNSLKPEDTAVYYCNAGRRRSYSYDYWGQGTQVTVSS | low polyreactivity |
| QVQLVESGGGLVQAGGSLRLSCAASGIIFFGYAMGWYRQAPGKERELVADITNGGRTYYADSVKGRFTISRDNAKNTVYLQMNSLKPEDTAVYYCAADAFWEVYYYNALEYDYWGQGTQVTVSS | high polyreactivity |
| QVQLVESGGGLVQAGGSLRLSCAASGSTFYTNAMGWYRQAPGKERELFAAIRQSGGTTHYADSVKGRFTISRDNAKNTVYLLMNSLKPEDTAVYYCAAVSGGYSRRYRYGYWGQGTQVTVSS | high polyreactivity |
| QFQLVESGGCLVQAGCSLRLSCAASGFIIFSNAMGLYRQAPGKERELVAAISRIGVSTFYADSVKGRLTISRDNAKNTVYLQMNSLKPEDTAVYYCNKSNPDYDGLAIHAFDYWGQGTQVTVSS | low polyreactivity |
| QVQLVESGGGLVQAGGSLRLSCAASGSTFNWNAMRWYRQPPGKERELVAAITSSGARTRYADSVKGRFTISRDNAKNTVYLQMNSLKPEDTAVYYCAAYVYISPSGYYYWGLGTQVTVSS | low polyreactivity |
| QVQLVESGGGLVQAGGSLRLSCAASGAIFGGYAMGWYRQAPGKERELVAAISSGGSTNYADSVKGRFTISRDNAKNTVYLQMNSLKPEDTAVYYCAVRGRLPHARQRGYVPKYYYWGQGTQVTVSS | high polyreactivity |
| QVQLVESGGGLVQAGGSLRLSCAASGITFNSYAMGWYRQAPGKERELVASITERGDSTYYADSVKGRFTLSRDNAKNTVYLQMNSLKPEDTGVYYCAAAEHLTRPSSPTQDGDHWGQGTQVTVSS | low polyreactivity |
| QVQLVESGGGLVQSGGSLRLSCAASGSIFIGNTMGWYRQAPGKERELVATIRRSGSRTYYADSVKGRFTISRDNAKHTVYLQMNSLKPEDTAVYYCAAVRLRTSGYKTIYDYWGQGTQVTVSS | low polyreactivity |
| QVQLVESGVRLVQAGGSLRLSCAASGSIFAKYTMGWYRPAPGKERELVAAITRSGTSTRYADSVKGRFTISRDNAKNTVYLQLNSLKPEDTAVYYCAASLYSWGQGTQVTVSS | high polyreactivity |
| QVQLVESGGGLVQAGGSLRLSCAASGHIFANYAMGWYRQAPGKERELVAAIRWSASRTYYADSVKGRFTISRDYAKNTVFLQLNSLKPEDTAVYYCAATIYTFWAYYYDYWGQGTQVTVSS | high polyreactivity |
| QVQLVESGGGLVQAGGSLRLSCAASGSIFSSYAMGWYRQAPGKERELVATITSSGGSTYYADSVKGRFTISRDNAKNTVYLQMNSLKPADTAVYYCAASYHTSYSLRRYYYWGQGTQVTVSS | low polyreactivity |
| QVQLVESGGGLVQAGGSLRLSCAASGLTFIYYAMGWYRQAPGKERELVAAISVSGGSTYYADSVKGRFTISRDNAKNTVYLQMNSLKQEDTAVYYCAADWFVHKPRYQYSFDYWGQGTQVTVSS | low polyreactivity |
| QVQLQESGGGLVQARGSLRLICAASGNISVTGFMGWYRQAPCKERELVASIGIGGTTYYADSVKGRFSISRDNAKNTVYLQMNSLKPEDTAVYYCAARYLYYAYSYWGQGTQVTVIS | low polyreactivity |
| QVQLLESGGGLVQAGGSLRLSCAASGRTFTTYTMGWYRQAPGKERELVAAIRSGGRTYYADSVKGRFTISRDNAKNTVYLQMNSLKPEDTAVYYCNARDCVRNVYAYAGRQYDYWGQGTQVTVSS | low polyreactivity |
| QVQLVESGGGLVQAGGSLRLSCAASGRTFYTNAMGWYRQAPGKERELVASISGSGGSTYYADSVKGRFTISRDNAKNTVYLQMNSLKPEDTAVYYCAADPAPTVEFGKYDYWGQGTQVTVSS | low polyreactivity |
| QDQLVESGGGLVQAGGSLRLSSAASGSIFRGYAMGWYRQAPGKERELVAAITFSGGSTYADSVKGRFTISRDNAKITVYLQMNSLKPEDTAVYYCAAKRTGHNWFTVYPYYSWGQGTQVTVSS | low polyreactivity |
| QVQLVESGGGLVQAGGSLRLSCAASGSTLGSNAMGWYRQAPGKERELVAAITWSGGTTYYADSVKGRFTISRDNAKNTVYLQMNSLKPEDTAVYYCATGQSVIYRYEYWGQGTQVSVSS | low polyreactivity |
| QVQIEESGGGLVQAGGSLRLSCAASGSTFGSYAMGWYRQAPGKEREFVAAISKRGGSTYYADSVKGRFTISRDNAKNTVYLQMNSLKPEDTAVYYCNRRQEYYSLHKTFNYWGQGTQVTVSS | high polyreactivity |
| QVQLVESGGGLVQAGGSLRLSCAASGFIFSWYAMGWYRQAPGKERELVAAISASGTSTYYADSVKGRFTISRDNAKNTVYLQMNSLKPEDTAVYYCAAEFVTEYLYGFVYEYDSWGQGTQVTVSS | low polyreactivity |
| QVQLVESGGGLVQAGGSLRLSCAASGRIFYKYAMGWYRQAPGKERELVAGITGSGGSTYYADSVKGRFTISRDNAKNTVYLQMNSLKPEDTAVYYCAKRVSYDYWGQGTQVTVSS | low polyreactivity |
| QVQLVESGGGLVQAGGSLRLSCAASGITFHGYAMGWYRQAPGTERELVAAISDSGSSTYYADSVKGRFTISRDNAKNTVYLQMNSLKPEDTAVYYCAAVSGFYDQYDYWGQGTQVTVSS | low polyreactivity |
| QVQLVESGGGLVQAGGSLRLSCAASGSIITGYAMGWYRQAPVKERELVAGINSGTSTNYADSVKGRFTISRDNAKNTVSLQMNSLKPEDTAVYYCAKTAERRHYGVYRFDYWGQGTQVTVSS | low polyreactivity |

| Sequence | polyreactivity (PSR sort gate) |
| --- | --- |
| QVQLVESGGGLVQAGGSLRLSCAASGSIFLYNTKGWYRQAPGKERELVAAISFSGVTTYYADSVKGRFTISRDNAKNTVYLQMNSLKPEDTAVYYCNKYLWKFTNSPLGDYYWGQGTQVTVSS | high polyreactivity |
| QVKLVYSGGGLVQAGGSLRLSCAASVSIFYYYGMGWYRQAPVKERQLVAAITYRGTRTYYADSGKGRFTFSRDNAKTTVYLQMYSLKAEDTALYYCAAERRIYSSDSWGQGTQVTVSS | high polyreactivity |
| QVQLVESGGGLVQAGGSLRLSCAASGFIYRDYVMGWYRQAPEKERELVAAISYRGGSTNYADSVKGRFTISRDNAMNTVFLQMNSLKPEDTSVYYCAADQVHKREYEYWGQGTQVTVSS | low polyreactivity |
| QVQLVESGGGLVQAGGSLRLSCAASGRIISPYAMGWYRQAPGKERELVAAISWRGSSTYYADSVKGRFTISRDNAKNTVYLQMNSLKPEDTAVYYCAAVYYRGIQSYDYWGQGTQVTVSS | low polyreactivity |
| QVQLVESGGGLVQAGGSLRLSCAASGRIFFKYAMGWYRQAPGKERELVAAISSSGGRTSYADSVKGRFTISRDNAKNTVYLQMNSLKPEDTAVYYCNVKPSARGSPLYDYWGQGTQVTVSS | high polyreactivity |
| QVQLVESGGGLVQAGGSLRLSWAASGLTFTHNAMGWYRQAHGKERELVAAISRRGGSTYYADSVKGRFTISRDNAKNTVYLQRNSLKPEDTAVYYCNAPVKVRATTNWEYDYWGQGTEVTVSS | high polyreactivity |
| QVQLVESGGGLVQAGGSLRLSCAATGIIFTGKSMGWYRQAPGTERELVASITSGDTTNYADSVKGRFTISRDNAKNTVYLQMNSLKPEDTAVYSCAKELQVRQGGDYWGQGTQVTVSS | low polyreactivity |
| QVQLVESGGGLVQAGGSLRLSCAASGRTFRYYSMGWYRQAPGKERELVAAITGSGARTYYADSVKGRFTISRDNAKNTVYLQMNSLKPEDTAVYYCAADSLFYDDRYDYWGQGTQVTVSS | high polyreactivity |
| QVQLVESGGGLVQAGGILRLSCAASGRIIRSYAMGWYRHAPGKERELVAAITSGGSTNYADSVKGRFTISRDNANNTVYLQMNSLKPEDTAVYYCAARWPWYGKLRYYYWGQGTQVTVSS | high polyreactivity |
| QVQLVESGGGLVQAGGSLRLSCAASGRTFHRNAMGWYRQAPGKERELVAAITGDGRTNYADSVKGRFTITRDNAKNTVSLQMNSLKPEDTAVYYCFSYDYDYWGQGTQVTVSS | low polyreactivity |
| QVQLVESGGGLVQAGGSLRLSCAASGSIFGRYAMGWYRQAPGKEREFVAAINRSTGSTYYADSVKGRFTISRDNAKNTVYLQMNSLKPEDTAVYYCAARSHSPGYNRRIRGYWGQGTQVTVSS | high polyreactivity |
| QVQLVESGGGLVQAGGSLRLSCAASGSIFFPYAMGWYRQAPGKERELVAAISYSGTSRYYADSVKGRFTISRDNAKNTVYLQMNSLKPEDTAVYYCAAYSRYYASYDYWGQGTQVTVSS | high polyreactivity |
| QVQLVESGGGLVQAGGSLRLSCAASGRTFYKYAMGWYRQAPGKERELVAAISKSGGRTYYADSVKGRFTISRDNAKNTVYLQLNSLKPEDTAVYYCAAEPFIPDQSRYYYWGQGTQVTVSS | high polyreactivity |
| QVQLVESGGGLVQAGGSLRLSCAASGNTFSAYAMGWYRQAPGKERELVAAISSRGGSTYYADSVKGRFTISRDNAKNTVYLQMNSLKPEDTAVYYCAAGWFGTSYRYRSSFDYWGQGTQVTVSS | high polyreactivity |
| QVQLVESGGGLVQAGGSLRLSCAASGFTSPTAMGWYRQAPGKVRELVADISVGDGSTYYADSVKGRFTISRDNAKNTVYLQMNSLKREDTAVYYCAAEYWLYWYQDGFGFDYWGQGTQVTVSS | high polyreactivity |
| QVQLVESGGGLVQAGGSLRLSCAASGSTFDDYTMGWYRQAPGKERELLAAISSDSSTNYADSVKGRFTISRDNAKNTVYLQMNSLKPEDTAVYYCATRSRTTKIVRWPGMYYWGQGTQVTVSS | high polyreactivity |
| QVQLVESGGGLVQAGGSLRVSCAASGITFAYYAMGWYRHAPGKDRELVAAITRRGSSTYYADSVKGRFTISRDNAKNTVYLQMNSLKPEATAVYYCAAVAYGRERYDYWGPGTQVTVSS | high polyreactivity |
| QVQLVESGGGLVQAGGSLRLSCAASGITSHWYVMGWYRQAPGKERELVAAINSSGGRTSYADSVKGRFTISRDNAKNTVYLQMNSLKPEDTAVYYCAAGYTHSYFLGATGKVDYWGQGTQVTVSS | low polyreactivity |
| QVQLVESGGGLVQAGGSLRLSCAASGGTFRLYTMGWYRQAPGKERELVAGISSSSGSTYYADSVKGRFTISRDNAKNTVYLQMNILKPEDTAVYYCAAYWPRSRYDYWGQGTQVTVSS | high polyreactivity |
| QVQLVESGGGLVQAGVSLRLSCAASGRIFPTNAMGWYRQAPGKERELVAAIPVSGGSTYYADSVKGRFTISRDNAKNTVYLQMNSLKPEDTAVYYCAVDDRASVGSRLDHWGQGTQVTVSS | low polyreactivity |
| QDQLVESGGGLVQAGGSLRLSCAASGFTLSINAMGWYRQAPGKERELVAGISWSGGSTYYADSVKGRFTISRDNAKNTVYLQMNSLKPEDTAVYYCNADIYPDRYGSTNYDFNYWGQGTQVTVSS | low polyreactivity |
